# Assay results published in the RNAGym collection of RNA variant scans (doi:10.7554/elife.80360).
# B1: Hairpin Ribozyme (parent)
# chain: GUCCUCUUUCACGUGCGCGUGAAAGAGAGAAGUGAACCAGAGAAACACACGUUGUGGUAUAUUACCUGGUA
# Variants of: B1
# Test: self-cleavage, relative activity (ratio to wild type); higher = more cleavage; co-transcriptional
row,Variant,self-cleavage
1,A45C U60C,0.293
2,A44G U62C,0.12
3,A44C A49C,0.103
4,A44C G68A,0.103
5,A44G A71G,0.117
6,A45G G56C,0.0912
7,A43C A64U,0.198
8,A44G C50U,0.134
9,A44G C50A,0.198
10,A43G A49C,0.116
11,A43G A49U,0.197
12,A44G C65G,0.192
13,A44C A45U,0.0709
14,C46A U60A,0.0649
15,C46A U60C,0.277
16,A44G U70G,0.135
17,C46U C48G,0.141
18,A45C C50A,0.209
19,A45C C50G,0.211
20,A44C C65U,0.142
21,A43C U67C,0.112
22,A43C U67A,0.0731
23,A43U A44G,0.163
24,A44C A71C,0.323

row,Variant,self-cleavage
1,A43U U52A,0.229
2,C46A A59U,0.109
3,C46A A59C,0.3
4,A45U U62A,0.149
5,A45U U62G,0.178
6,C46G U55G,0.107
7,A43C A71C,0.26
8,A43C A71U,0.159
9,A43U U55G,0.232
10,A45U C65G,0.155
11,A45C U53G,0.138
12,A43U A61G,0.144
13,A43U A61C,0.123
14,A43C G54C,0.163
15,A43C G54A,0.217
16,A45C C65A,0.2
17,A43C C66U,0.181
18,A43C A61C,0.218
19,A43C A61U,0.0908
20,A47C C50A,0.29
21,C46G G68A,0.123
22,C46G G68U,0.19
23,A47C C48A,0.164
24,A43G U55G,0.128

row,Variant,self-cleavage
1,A44G A49G,0.126
2,A44G A49C,0.0332
3,A45C U67G,0.0812
4,A43G A71G,0.165
5,A43G A71U,0.16
6,A43G A71C,0.458
7,C46A A61U,0.171
8,A43G A64U,0.302
9,A43G C66U,0.139
10,A43G C66A,0.171
11,A43G C66G,0.0518
12,A44C G57U,0.0814
13,A44U U52G,0.121
14,C46G U67C,0.173
15,C46G U67G,0.198
16,A43C U55G,0.148
17,A45U C66U,0.117
18,A45U C66A,0.204
19,A43U A49C,0.173
20,A44G A64C,0.12
21,A44G A64U,0.102
22,A44U A61G,0.124
23,A44G C46G,0.0715
24,C46G G54C,0.0768

row,Variant,self-cleavage
1,A45G A64G,0.1
2,A45G A64C,0.216
3,C46G U53C,0.0868
4,C46G U53A,0.0595
5,A44C U70G,0
6,A44G A47C,0.222
7,A44G A47U,0.163
8,C46U G51A,0.132
9,A44G G56C,0.0768
10,A44G G56A,0.191
11,C46U A49G,0.24
12,C46U A49U,0.239
13,A43G U58A,0.128
14,A45C A61G,0.105
15,A45U G51C,0.0528
16,A43G A44U,0.207
17,C46G U70C,0.203
18,A47C G69U,0.0997
19,A47C G69A,0.151
20,A44G U63G,0.239
21,A44G U63C,0.21
22,A45G C66A,0.176
23,A45G C66G,0.122
24,C46A A47C,0.0767

row,Variant,self-cleavage
1,A45G C48A,0.109
2,C46A A71C,0.342
3,C46U U52C,0.215
4,A44U A71U,0.256
5,A44U A71C,0.3
6,A44U U63A,0.141
7,A44U U63C,0.135
8,A43U A47C,0.178
9,A45U U58C,0.0664
10,A47C U62G,0.227
11,C46G U52A,0.189
12,C46G U52C,0.144
13,C46G U52G,0.232
14,A45C G51U,0.116
15,C46U C65G,0.087
16,C46U A64C,0.0758
17,A45G U52G,0.0854
18,A47C U60C,0.418
19,A45C G68C,0.119
20,A44C C50G,0
21,A43G G56C,0.0421
22,A43G G56U,0.0228
23,A45C G56A,0.144
24,A45C G56C,0.312

row,Variant,self-cleavage
1,A45U U52A,0.122
2,A43C C48G,0.0498
3,A43C G68A,0.176
4,A43C G68U,0.0938
5,A47C U58C,0.318
6,A44C U62A,0.156
7,A47C U55A,0.195
8,C46A G56U,0.077
9,C46A G54U,0.307
10,A44U A49C,0.0643
11,A44G U55G,0.185
12,A45U A49C,0.134
13,A45U A49G,0.165
14,A44C A61U,0.212
15,A44C U63G,0.182
16,A43G C50A,0.131
17,C46U C50G,0.0749
18,A45U G57A,0.17
19,A44G U53A,0.214
20,A44G U53G,0.112
21,A45C C48G,0.188
22,A45C C48A,0.0612
23,A45C G54U,0.152
24,A43C U53A,0.129

row,Variant,self-cleavage
1,A43C U53C,0.163
2,C46U G54U,0.179
3,A44G A45U,0.0878
4,A44G A45G,0.228
5,C46U U60C,0.247
6,C46U U60A,0.16
7,A43C U58A,0.174
8,A45C U62C,0.141
9,C46G C48A,0.204
10,C46G C48U,0.156
11,C46G C50U,0.185
12,C46G A47C,0.125
13,C46G A47G,0.136
14,A44C U60G,0.0874
15,A45G G57A,0.0893
16,A43G U67C,0.153
17,A43G U67G,0.207
18,A44U A47C,0.0912
19,A43G A47C,0.172
20,A44U C46U,0.193
21,A47C G68U,0.298
22,A45G U62C,0.0923
23,A45G G51A,0.161
